Measured values: the MegaScale stability set (Tsuboyama et al. 2023)

B1: EEHEE_rd3_0130 (parent)
chain: TKIIVNGKTFTAPTEEEAQKIAEKLAKKAGLTVHKKNGTFELK

Variants of: B1
Assay: folding stability dG (cDNA display proteolysis); higher = more stable
Details: PBS, room temperature

Folding stability dG [kcal/mol] of substitutions, site by site:
E41: D -0.202; Q 0.186
A29: K 0.837; V 0.495; Y 3.33; L 2.45; G 0.616; P -0.744; W 3.21; T 1.2; N 1.17; M 2.08; S 0.857; Q 0.726; H 2.12; I 0.979; R 1.04
H34: A 0.451; T 0.992; I 1.2; P -0.455; K 0.497; Q 0.444; G 0.117; L 0.902; S 0.682; W 0.405; R 0.72; D 0.195; F 0.97; V 1.25; Y 1.14; M 0.601; C 1.31; N 0.474; E 0.679
K35: F 1.61; Y 1.55; P -0.427; L 0.661; S 0.33; G 0.063; H 0.653; M 0.631; T 0.197; R 0.798; E 0.03; N 0.482; W 1.34; A 0.318; Q 0.41; V 0.732; I 0.718; D -0.099
T39: K 0.554; R 0.935; C 1.17; Q 1.29; E 0.778; I 1.44; N 1.12; G 1.13; S 1.24; H 1.33; D 0.863; P 0.066; W 1.3; L 0.663; A 1.47; M 1.14; Y 1.57; V 1.39; F 1.21
G30: V -0.549; E -0.258; R 0.057; L -0.179; K 0.272; I -0.078; T 0.204; H 0.531; C 0.98; D 0.07; N 0.349; S 0.137; M 0.018; F -0.093; W -0.249; P -0.624; Y -0.036; Q 0.163; A -0.039
K43: A 0.626; M 0.985; P -0.2; N 0.532; F 1.13; V 1.3; S 0.91; H 0.826; T 1.07; E 0.545; Y 1.15; L 1.18; I 1.33; D 0.338; W 1.16; Q 0.615; C 1.76; G 0.476; R 1.07
T32: S 0.621; G -0.284; V 1.02; N 0.28; D -0.061; Q 0.523; H 0.159; K 0.69; F 0.022; E 0.222; P -0.446; C 1.05; R 0.561; M 0.321; L 0.291; A 0.577; W -0.409; I 0.92; Y 0.023
V33: W 0.592; F 0.358; I 1.13; E -0.529; G -0.128; C 1.13; S -0.023; A 0.036; H -0.447; Q -0.574; R -0.007; T 0.223; N -0.582; D -0.376; L 0.891; Y 0.251; K -0.149; M 0.559
K36: W 0.712; D 0.477; R 0.78; E 0.75; H 0.939; M 0.882; T 1.02; S 0.956; F 0.986; Q 0.8; L 1.01; A 0.698; I 1.56; V 1.52; P -0.983; C 0.875; Y 1.12; N 1.03; G 0.596
